From patent US20230073274A1 (NOVELMED THERAPEUTICS, published 2023) come the findings set out here.

Like-named read-outs stand apart in the source and are kept apart here.

Experiment [1] concerns the target T1, human properdin (human, UniProt P27918 28-469). Put plainly: ELISA, properdin coated on the plate, OD 450 nm.
Experiment [2] deals with T1, human properdin. Put plainly: cell-based or functional assay.
For experiment [3], the target named is T1, human properdin. The experiment in a line: cell-based or functional assay. This is another data set of the same source.
The target in experiment [4] is T1, human properdin. The experiment in a line: ELISA, human properdin coated on plate. On the procedure:
(§1) Polystyrene microtiter plates were coated with human (2.0 μg/50 μl per well) properdin in phosphate buffered saline (PBS) overnight at 4° C. After aspirating the properdin solution, the wells were blocked with PBS containing 1% bovine serum albumin (BSA) (Sigma-Aldrich, St. Louis, Mo.) for 2 hours at room temperature. Wells without peptide or properdin coating served as background controls. Aliquots of the test antibody in blocking solution were added to the properdin coated wells and allowed to incubate for 1 hour to allow binding to occur. Following a 1 hour incubation at room temperature, the plate was rinsed with PBS five times and incubated with 1:2000 diluted anti-properdin polyclonal antibody.
On the technique in general: ELISA stands for enzyme-linked immunosorbent assay.

Experiment [5] addresses T1, human properdin. The experiment in a line: ELISA, human properdin coated on the plate, OD 450 nm. The procedure: as §1
In experiment [6] the target is T1, human properdin. The experiment in a line: cell-based or functional assay. This is another data set of the same source.
Experiment [7] concerns the target T1, human properdin. Put plainly: cell-based or functional assay. This is another data set of the same source.
The target in experiment [8] is T1, human properdin. The experiment in a line: cell-based or functional assay. The source holds these as a separate data set.
The target in experiment [9] is T1, human properdin. Put plainly: cell-based or functional assay. The source holds these as a separate data set.
Experiment [10] deals with T1, human properdin. Put plainly: ELISA, properdin coated on the plate, OD 450 nm. The source holds these as a separate data set.

T1 sequence (P27918 28-469 limits assumed): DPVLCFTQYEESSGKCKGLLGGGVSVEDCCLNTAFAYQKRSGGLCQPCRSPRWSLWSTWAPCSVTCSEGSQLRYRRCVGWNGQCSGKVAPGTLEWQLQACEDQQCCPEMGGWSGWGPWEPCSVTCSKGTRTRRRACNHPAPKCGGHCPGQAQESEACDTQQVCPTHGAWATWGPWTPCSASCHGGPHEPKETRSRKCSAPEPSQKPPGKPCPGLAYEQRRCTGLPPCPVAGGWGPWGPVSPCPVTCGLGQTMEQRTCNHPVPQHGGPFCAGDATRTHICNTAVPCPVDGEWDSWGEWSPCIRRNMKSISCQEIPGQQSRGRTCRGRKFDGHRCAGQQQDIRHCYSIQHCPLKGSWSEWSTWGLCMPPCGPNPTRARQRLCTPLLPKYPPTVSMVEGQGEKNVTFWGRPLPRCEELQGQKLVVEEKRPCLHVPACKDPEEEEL

B1: NMT31 (antibody, V domains shown)
VH: EVTLKESGPTLVKPTQTLTLTCTFSGFSLSTSGMGVGWIRQPPGKALEWLAHIWWDDVKSYNPALKSRLTITKDTSKNQVVLTMTNMDPVDTATYYCARIGDGYYSFDYWGQGTTVTVSS
VL: DIQMTQSPSSLSASVGDRVTITCRASQDVSDAVAWFQQKPGKAPKLLIYSPSYRYTGVPSRFSGSGSGTDFTFTISSLQPEDLATYYCQQHYSTPWTFGQGTKLEIK
On to B1, for which the EC50 (read off the curve) (as a rule, the midpoint of the concentration-response curve) in [1] was around 60 pM. Further, the “IC50 (read off the curve): C3b deposition (sheet title: LPS C3b 10% NHS)” value (“IC50 … (sheet title: LPS C3b 10% NHS)” below) in [2] is around 0.7 µg/mL.

B2: NMT31-100 (antibody, V domains shown)
VH: EVTLKESGPTLVKPTQTLTLTCTFSGFSLSTSGMGVGWIRQPPGKALEWLAHIWWDDVKSYNPALKSRLTITKDTSKNQVVLTMTNMDPVDTATYYCARIGDGYYSFDYWGQGTTVTVSS
VL: DIQMTQSPSSLSASVGDRVTITCRASQDVSDAVAWFQQKPGKAPKLLIYSPSYRYTGVPSRFSGSGSGTDFTFTISSLQPEDLATYYCQQHYSTPWTFGQGTKLEIK
Turning to B2, in [3], the “IC50 … (sheet title: LPS C3b 10% NHS)” value is around 0.5 µg/mL.

B3: NMT31-101 (antibody, V domains shown)
VH: EVTLKESGPTLVKPTQTLTLTCTFSGFSLSTSGMGVGWIRQPPGKALEWLAHIWWDDVKSYNPALKSRLTITKDTSKNQVVLTMTNMDPVDTATYYCARIGDGYYSFDYWGQGTTVTVSS
VL: DIQMTQSPSSLSASVGDRVTITCRASQDVSDAVAWFQQKPGKAPKLLIYSPSYRYTGVPSRFSGSGSGTDFTFTISSLQPEDLATYYCQQHYSTPWTFGQGTKLEIK
In the case of B3, the “IC50 … (sheet title: LPS C3b 10% NHS)” value in [3] is around 0.5 µg/mL.

B4: NMT29 (antibody, V domains shown)
VH: EVTLKESGPTLVKPTQTLTLTCTFSGFSLSTSGMGVGWIRQPPGKALEWLAHIWWDDVKSYNPALKSRLTITKDTSKNQVVLTMTNMDPVDTATYYCARIGDGYYSFDYWGQGTTVTVSS
VL: DIQMTQSPSSLSASVGDRVTITCRASQDVSDAVAWYQQKPGKAPKLLIYSPSYRYTGVPSRFSGSGSGTDFTLTISSLQPEDFATYYCQQHYSTPWTFGQGTKLEIK
Turning to B4, the “EC50 (read off the curve)” value in experiment [1] is around 50 pM. In addition, in experiment [2], the “IC50 … (sheet title: LPS C3b 10% NHS)” value is around 0.9 µg/mL.

B5: NMT30 (antibody, V domains shown)
VH: EVTLKESGPTLVKPTQTLTLTCTFSGFSLSTSGMGVGWIRQPPGKALEWLAHIWWDDVKSYNPALKSRLTITKDTSKNQVVLTITNVDPVDTATYYCARIGDGYYSFDYWGQGTTLTVSS
VL: DIQMTQSPSSLSASVGDRVTITCRASQDVSDAVAWFQQKPGKAPKLLIYSPSYRYTGVPSRFSGSGSGTDFTFTISSLQPEDFATYYCQQHYSTPWTFGQGTKLEIK
In the case of B5, the “EC50 (read off the curve)” value in [1] was around 40 pM. In addition, the “IC50 … (sheet title: LPS C3b 10% NHS)” value in experiment [2] was around 0.4 µg/mL.

B6: NMT30-100 (antibody, V domains shown)
VH: EVTLKESGPTLVKPTQTLTLTCTFSGFSLSTSGMGVGWIRQPPGKALEWLAHIWWDDVKSYNPALKSRLTITKDTSKNQVVLTITNVDPVDTATYYCARIGDGYYSFDYWGQGTTLTVSS
VL: DIQMTQSPSSLSASVGDRVTITCRASQDVSDAVAWFQQKPGKAPKLLIYSPSYRYTGVPSRFSGSGSGTDFTFTISSLQPEDFATYYCQQHYSTPWTFGQGTKLEIK
For B6, the “IC50 … (sheet title: LPS C3b 10% NHS)” value in [3] was around 0.6 µg/mL.

B7: NMT30-101 (antibody, V domains shown)
VH: EVTLKESGPTLVKPTQTLTLTCTFSGFSLSTSGMGVGWIRQPPGKALEWLAHIWWDDVKSYNPALKSRLTITKDTSKNQVVLTITNVDPVDTATYYCARIGDGYYSFDYWGQGTTLTVSS
VL: DIQMTQSPSSLSASVGDRVTITCRASQDVSDAVAWFQQKPGKAPKLLIYSPSYRYTGVPSRFSGSGSGTDFTFTISSLQPEDFATYYCQQHYSTPWTFGQGTKLEIK
As for B7, in experiment [3], the “IC50 … (sheet title: LPS C3b 10% NHS)” value is around 0.6 µg/mL.

B8: NMT15 (antibody, V domains shown)
VH: QVQLVQSAPEVAKPGTSVKMSCKASGYIFTNYPIHWVKQAPGQGLEWIGFIDPGGGYDEPDERFRDRATLTADKSTSTAYMELSSLRSEDTAIYYCARRGGGYYLDYWGQGTLVTVSS
VL: DIQMTQSPSSLSASLGDRVTITCRASQDISFFLNWYQQKPDGTVKLLIYYTSRYHSGVPSRFSGSGSGTDFTLTISSLQPEDFATYFCQHGNTLPWTFGQGTKLEIK
For B8, the “Binding Affinity” value in experiment [4] amounted to 270 pM. Also, the “EC50 (read off the curve)” value in [5] fell in the range of 200 to 300 pM. Further, in [6], the “MAC (µg/Ml); inhibition of MAC formation” value was 1 µg/mL and the “Properdin (µg/mL); inhibition of properdin deposition” value (shortened to “Properdin (µg/mL); inhibition”) came to 2 µg/mL. In addition, the “IC50 (read off the curve): properdin deposition (AP C3 convertase formation assay)” value in experiment [7] is around 0.4 µg/mL. In addition, the “IC50 (read off the curve): C3b deposition (AP activation on LPS, normal human serum)” value in [8] was around 0.5 µg/mL. The “IC50 (read off the curve): properdin deposition (AP activation on LPS, 10% normal human serum)” value in experiment [9] was around 0.8 µg/mL.

B9: NMT18 (antibody, V domains shown)
VH: EVQLVQSGAEVKKPGASVKVSCKASGYIFTNYPIHWVRQAPGQGLEWMGFIDPGGGYDEPDERFRDRVTMTADTSTSTAYMELSSLRSEDTAVYYCARRGGGYYLDYWGQGTTVTVSS
VL: DIQMTQSPSSLSASVGDRVTITCRASQDISFFLNWYQQKPGKAPKLLIYYTSRYHSGVPSRFSGSGSGTDFTLTISSLQPEDFATYYCQHGQTLPWTFGQGTKLEIK
Turning to B9, the “Binding Affinity” value in [4] amounted to 289 pM. The “EC50 (read off the curve)” value in experiment [5] was around 300 pM. In addition, in experiment [6], the “MAC (µg/Ml); inhibition of MAC formation” value was 9 µg/mL and the “Properdin (µg/mL); inhibition” value is 3 µg/mL. Further, the “IC50 (read off the curve): C3b deposition (AP activation on LPS, normal human serum)” value in [8] was around 0.5 µg/mL. The “IC50 (read off the curve): properdin deposition (AP activation on LPS, 10% normal human serum)” value in experiment [9] was around 0.9 µg/mL.

B10: NMT16 (antibody, V domains shown)
VH: EVQLVQSGAEVKKPGASVKVSCKASGYIFTNYPIHWVRQAPGQGLEWMGFIDPGGGYDEPDERFRDRVTMTADTSTSTAYMELSSLRSEDTAVYYCARRGGGYYLDYWGQGTTVTVSS
VL: DIQMTQSPSSLSASVGDRVTITCRASQDISFFLNWYQQKPGKAPKLLIYYTSRYHSGVPSRFSGSGSGTDFTLTISSLQPEDFATYYCQHGNTLPWTFGQGTKLEIK
Take B10: the “Binding Affinity” value in experiment [4] stood at 315 pM. Further, in experiment [5], the “EC50 (read off the curve)” value is 300 to 400 pM. For the same molecule, in experiment [6], the “MAC (µg/Ml); inhibition of MAC formation” value was determined as 3 µg/mL and the “Properdin (µg/mL); inhibition” value stood at 4 µg/mL. Also, the “IC50 (read off the curve): properdin deposition (AP activation on LPS, 10% normal human serum)” value in [9] was around 1 µg/mL.

B11: NMT28 (antibody, V domains shown)
VH: EVQLVQSGAEVKKPGASVKVSCKASGYIFTNYPIHWVRQAPGQGLEWMGFIDPGGGYDEPDERFRDRVTMTADTSTSTAYMELSSLRSEDTAVYYCARRGGGYYLDYWGQGTLVTVSS
VL: DIQMTQSPSSLSASVGDRVTITCRASQDISFFLNWYQQKPGKAPKLLIYYTSRYHSGVPSRFSGSGSGTDFTLTISSLQPEDFATYYCQHGQTLPWTFGQGTKVEIK
On to B11, for which, in experiment [7], the “IC50 (read off the curve): C3b deposition (AP C3 convertase formation assay)” value is around 0.3 µg/mL and the “IC50 (read off the curve): properdin deposition (AP C3 convertase formation assay)” value is around 0.3 µg/mL. Also, in experiment [10], the “EC50 (read off the curve)” value was around 60 pM.

B12: NMT17 (antibody, V domains shown)
VH: EVQLVQSGAEVKKPGASVKVSCKASGYIFTNYPIHWVRQAPGQGLEWMGFIDPGGGYDEPDERFRDRVTMTADTSTSTAYMELSSLRSEDTAVYYCARRGGGYYLDYWGQGTTVTVSS
VL: DIQMTQSPSSLSASVGDRVTITCRASQDISFFLNWYQQKPGKAPKLLIYYTSRYHSGVPSRFSGSGSGTDFTLTISSLQPEDFATYYCQHGSTLPWTFGQGTKLEIK
On to B12, for which the “Binding Affinity” value in [4] turned out to be 283 pM. In experiment [5], the “EC50 (read off the curve)” value was around 300 pM. In addition, in experiment [6], the “MAC (µg/Ml); inhibition of MAC formation” value is 5 µg/mL and the “Properdin (µg/mL); inhibition” value worked out at 4 µg/mL. In [8], the “IC50 (read off the curve): C3b deposition (AP activation on LPS, normal human serum)” value was around 0.7 µg/mL. In experiment [9], the “IC50 (read off the curve): properdin deposition (AP activation on LPS, 10% normal human serum)” value was around 0.9 µg/mL.
